Experimental data taken from publication PMC5775292, “Comprehensive reduction of amino acid set in a protein suggests the importance of prebiotic amino acids for stable proteins” (Scientific Reports, 2018).

Target: the molecule itself
Assay: SEC; analytical gel filtration, Superdex 200 (1.0 x 30 cm), 20 mM potassium phosphate pH 6.0, 150 mM KCl, 1 mM EDTA; initial protein concentration 20 uM, 0.2 ml loaded, 0.5 ml/min; apparent molar mass from a calibration curve

B1: Bacillus subtilis nucleoside diphosphate kinase (enzyme, UniProt P31103 1-149, looked up)
chain: MMEKTFIMVKPDGVQRQLIGDILSRFERKGLQLAGAKLMRVTEQMAEKHYAEHQGKPFFGELVEFITSGPVFAMVWEGENVIEVTRQLIGKTNPKEALPGTIRGDYGMFVGKNIIHGSDSLESAEREINIFFKNEELVSYQQLMAGWIY
notes: nucleoside diphosphate kinase, Bacillus subtilis; construct not described; also called B. subtilis NDK; extant mesophilic NDK
- stoichiometry N: 6
